The nature of the data set: Assay for conversion of compound (III) to compound (IV) by protein extracts, HPLC detection. As to conditions: recombinant orf3 protein from E. coli BL21(DE3)/pBLS3; ATP, Mg(AcO)2, MOPS pH 7.4; 37 °C, 15 minutes; underivatised and benzoin-derivatised HPLC. The format is biochemical, Streptomyces clavuligerus. The protocol:
The crude extracts prepared from the recombinant E. coli containing the pBLS3vector (example 5) and the purified protein product (example 6) were tested for the ability to catalyse the conversion of the compound (III) to compound (IV). Both compound (III) and compound (IV) were prepared synthetically following previously published methods (Baldwin et al J. Chem Soc. Chem Comm. 1993 p500-2 and Elson et al J. Chem Soc. Chem Comm. 1993 p1212-4). Protein extracts were assayed for the conversion of compound (III) to compound (IV) under the following conditions: [table] The above mixture was heated at 37 ° C. for 15 minutes before being analysed by the HPLC methods described below. This assay was carried out using the following equipment and conditions • Waters 746 data module • Waters 600E system controller • Waters 712 WISP injector • Waters 848 tunable absorbance detector The protocol used was Kai et al. (M. Kai, T. Miyazaki, M. Yamaguchi, Y Ohkura, J. Chromatog. 268, 417-424, 1983) which assays for compounds containing guanidino functionalities using a fluorescence detector. […]

B1: orf3 product: polypeptide encoded by orf3 of the Streptomyces clavuligerus clavulanic acid gene cluster (SEQ ID NO:2), 56 KDa, β-lactam synthetase (protein, listed as Streptomyces clavuligerus)
chain: GAPVLPAAFGFLASARTGGGRAPGPVFATRGSHTDIDTPQGERSLAATLVHAPSVAPDRAVARSLTGAPTTAVLAGEIYNRDELLSVLPAGPAPEGDAELVLRLLERYDLHAFRLVNGRFATVVRTGDRVLLATDHAGSVPLYTCVAPGEVRASTEAKALAAHRDPKGFPLADARRVAGLTGVYQVPAGAVMDIDLGSGTAVTHRTWTPGLSRRILPEGEAVAAVRAALEKAVAQRVTPGDTPLVVLSGGIDSSGVAACAHRAAGELDTVSMGTDTSNEFREARAVVDHLRTRHREITIPTTELLAQLPYAVWASESVDPDIIEYLLPLTALYRALDGPERRILTGYGADIPLGGMHREDRLPALDTVLAHDMATFDGLNEMSPVLSTLAGHWTTHPYWDREVLDLLVSLEAGLKRRHGRDKWVLRAAMADALPAETVNRPKLGVHEGSGTTSSFSRLLLDHGVAEDRVHEAKRQVVRELFDLTVGGGRHPSEVDTDDVVRSVADRTARGAA
On to B1, for which the “β-lactam synthetase activity: conversion of compound (III) to compound (IV)” value was “catalysis the conversion of compound (III) to compound (IV)”.

The values are drawn from patent publication US6905849B1, “Process for preparing clavam derivatives by using polypeptides having β-lactam synthetase activity” (SmithKline Beecham plc, priority 1998, dated 2005).
